Legend:
[1] = target: T1, P8A-bP; experiment: two-hybrid library CCNG1;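 note: natural log of median RNA to DNA barcode read ratio; higher means stronger binding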
T1 chain: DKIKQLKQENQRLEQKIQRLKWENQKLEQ

[2] = target: T2, P6A-bP; experiment: two-hybrid library CCNG1;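 note: natural log of median RNA to DNA barcode read ratio; higher means stronger binding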
T2 chain: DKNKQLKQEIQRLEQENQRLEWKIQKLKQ

[3] = target: T3, P9A-bP; experiment: two-hybrid library CCNG1;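 note: natural log of median RNA to DNA barcode read ratio; higher means stronger binding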
T3 chain: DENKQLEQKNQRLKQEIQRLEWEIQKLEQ

[4] = target: T4, P7A-bP; experiment: two-hybrid library CCNG1;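 note: natural log of median RNA to DNA barcode read ratio; higher means stronger binding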
T4 chain: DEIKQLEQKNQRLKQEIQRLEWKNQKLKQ

[5] = target: T5, 4H932-bA; experiment: two-hybrid library CCNG1;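 note: natural log of median RNA to DNA barcode read ratio; higher means stronger binding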
T5 chain: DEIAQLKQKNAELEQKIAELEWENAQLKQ

[6] = target: T6, 4H796-bA; experiment: two-hybrid library CCNG1;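 note: natural log of median RNA to DNA barcode read ratio; higher means stronger binding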
T6 chain: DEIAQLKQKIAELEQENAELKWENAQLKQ

[7] = target: T7, 4H2760-bA; experiment: two-hybrid library CCNG1
T7 chain: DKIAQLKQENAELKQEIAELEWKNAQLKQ

[8] = target: T8, 4H3364-bA; experiment: two-hybrid library CCNG1
T8 chain: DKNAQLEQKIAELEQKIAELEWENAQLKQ

[9] = target: T9, 4H730-bA; experiment: two-hybrid library CCNG1
T9 chain: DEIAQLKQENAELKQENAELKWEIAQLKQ

[10] = target: T10, 4H3041-bA; experiment: two-hybrid library CCNG1
T10 chain: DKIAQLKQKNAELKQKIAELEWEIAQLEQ

[11] = target: T11, 4H2585-bA; experiment: two-hybrid library CCNG1
T11 chain: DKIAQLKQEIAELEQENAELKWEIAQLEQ

[12] = target: T12, 4H264-bA; experiment: two-hybrid library CCNG1
T12 chain: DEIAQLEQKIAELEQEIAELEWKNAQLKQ

[13] = target: T13, 4H949-bA; experiment: two-hybrid library CCNG1
T13 chain: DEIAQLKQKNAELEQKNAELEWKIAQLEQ

[14] = target: T14, 4H2931-bA; experiment: two-hybrid library CCNG1
T14 chain: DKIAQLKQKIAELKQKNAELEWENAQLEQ

[15] = target: T15, 4H3297-bA; experiment: two-hybrid library CCNG1
T15 chain: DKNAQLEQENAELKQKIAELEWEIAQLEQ

[16] = target: T16, 4H3381-bA; experiment: two-hybrid library CCNG1
T16 chain: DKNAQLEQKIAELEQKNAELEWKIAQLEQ

[17] = target: T17, 4H2859-bA; experiment: two-hybrid library CCNG1
T17 chain: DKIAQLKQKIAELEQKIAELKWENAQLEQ

[18] = target: T18, 4H346-bH; experiment: two-hybrid library CCNG1
T18 chain: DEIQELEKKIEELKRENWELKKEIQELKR

[19] = target: T19, 4H349-bA; experiment: two-hybrid library CCNG1
T19 chain: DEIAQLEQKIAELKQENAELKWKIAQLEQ

[20] = target: T20, 4H56-bA; experiment: two-hybrid library CCNG1
T20 chain: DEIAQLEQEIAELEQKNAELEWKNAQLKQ

[21] = target: T21, 4H2713-AA; experiment: two-hybrid library CCmax; details: mean of both orientations
T21 chain: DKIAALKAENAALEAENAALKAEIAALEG

[22] = target: T22, 4H478-AA; experiment: two-hybrid library CCmax; details: mean of both orientations
T22 chain: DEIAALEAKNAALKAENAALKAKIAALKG

[23] = target: T23, 4H428-AA; experiment: two-hybrid library CCmax; details: mean of both orientations
T23 chain: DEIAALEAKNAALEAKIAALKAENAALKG

[24] = target: T24, 4H3121-AA; experiment: two-hybrid library CCmax; details: mean of both orientations
T24 chain: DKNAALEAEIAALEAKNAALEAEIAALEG

[25] = target: T25, 4H391-AA; experiment: two-hybrid library CCmax; details: mean of both orientations
T25 chain: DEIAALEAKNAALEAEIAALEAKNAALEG

[26] = target: T26, 4H3666-AA; experiment: two-hybrid library CCmax; details: mean of both orientations
T26 chain: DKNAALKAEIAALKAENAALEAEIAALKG

[27] = target: T27, 4H2948-AA; experiment: two-hybrid library CCmax; details: mean of both orientations
T27 chain: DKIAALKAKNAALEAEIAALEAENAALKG

[28] = target: T28, 4H1854-AA; experiment: two-hybrid library CCmax; details: mean of both orientations
T28 chain: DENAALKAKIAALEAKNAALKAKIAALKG

[29] = target: T29, 4H497-AA; experiment: two-hybrid library CCmax; details: mean of both orientations
T29 chain: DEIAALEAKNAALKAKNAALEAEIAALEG

[30] = target: T30, 4H3939-AA; experiment: two-hybrid library CCmax; details: mean of both orientations
T30 chain: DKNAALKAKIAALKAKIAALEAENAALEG

[31] = target: T31, 4H3591-AA; experiment: two-hybrid library CCmax; details: mean of both orientations
T31 chain: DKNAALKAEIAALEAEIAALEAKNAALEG

[32] = target: T32, 4H2283-AA; experiment: two-hybrid library CCmax; details: mean of both orientations
T32 chain: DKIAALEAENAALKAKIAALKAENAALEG

[33] = target: T33, 4H971-AA; experiment: two-hybrid library CCmax
T33 chain: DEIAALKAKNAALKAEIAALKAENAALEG

[34] = target: T34, 4H675-AA; experiment: two-hybrid library CCmax; details: mean of both orientations
T34 chain: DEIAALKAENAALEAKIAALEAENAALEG

[35] = target: T35, 4H3446-AA; experiment: two-hybrid library CCmax; details: mean of both orientations
T35 chain: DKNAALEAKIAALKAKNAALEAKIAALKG

[36] = target: T36, 4H189-AA; experiment: two-hybrid library CCmax; details: mean of both orientations
T36 chain: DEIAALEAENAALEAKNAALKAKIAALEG

[37] = target: T37, 4H3417-AA; experiment: two-hybrid library CCmax; details: mean of both orientations
T37 chain: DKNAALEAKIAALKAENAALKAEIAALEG

[38] = target: T38, 4H3102-AA; experiment: two-hybrid library CCmax; details: mean of both orientations
T38 chain: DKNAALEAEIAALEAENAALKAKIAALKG

[39] = target: T39, 4H3709-AA; experiment: two-hybrid library CCmax; details: mean of both orientations
T39 chain: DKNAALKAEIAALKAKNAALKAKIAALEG

[40] = target: T40, 4H2991-AA; experiment: two-hybrid library CCmax; details: mean of both orientations
T40 chain: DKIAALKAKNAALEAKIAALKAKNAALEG

[41] = target: T41, 4H2248-AA; experiment: two-hybrid library CCmax; details: mean of both orientations
T41 chain: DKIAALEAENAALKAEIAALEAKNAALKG

[42] = target: T42, 4H656-AA; experiment: two-hybrid library CCmax; details: mean of both orientations
T42 chain: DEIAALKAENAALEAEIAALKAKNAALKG

[43] = target: T43, 4H3920-AA; experiment: two-hybrid library CCmax; details: mean of both orientations
T43 chain: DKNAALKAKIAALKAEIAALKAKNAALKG

[44] = target: T44, 4H3066-AA; experiment: two-hybrid library CCmax; details: mean of both orientations
T44 chain: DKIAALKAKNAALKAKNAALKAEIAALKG

[45] = target: T45, 4H2742-AA; experiment: two-hybrid library CCmax; details: mean of both orientations
T45 chain: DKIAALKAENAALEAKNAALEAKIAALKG

[46] = target: T46, 4H3628-AA; experiment: two-hybrid library CCmax; details: mean of both orientations
T46 chain: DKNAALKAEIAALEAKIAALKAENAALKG

[47] = target: T47, 4H1809-AA; experiment: two-hybrid library CCmax; details: mean of both orientations
T47 chain: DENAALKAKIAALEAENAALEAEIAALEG

[48] = target: T48, 4H3029-AA; experiment: two-hybrid library CCmax; details: mean of both orientations
T48 chain: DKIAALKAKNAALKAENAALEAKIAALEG

Binder: DKNKQLKQEIQRLEQENQRLEWKIQKLKQ [P6A-bP]
- interaction score [1]: -0.264
- interaction score [2]: -0.494
- interaction score [3]: -0.616
- interaction score [4]: 0.418

Binder: DKIAQLKQEIAELEQENAELKWEIAQLEQ [4H2585-bA]
- interaction score [5]: -0.825
- interaction score [6]: -1.49
- interaction score [7]: 0.582
- interaction score [8]: -0.878
- interaction score [9]: -1.31
- interaction score [10]: 0.083
- interaction score [11]: 0.266
- interaction score [12]: -1.54
- interaction score [13]: -1.08
- interaction score [14]: -0.357
- interaction score [15]: -1.21
- interaction score [16]: -0.791
- interaction score [17]: -0.28
- interaction score [18]: 1.98
- interaction score [19]: 1.13
- interaction score [20]: -0.397

Binder: DEIAALEAENAALEAENAALEAEIAALKG [4H146-AA]
- interaction score [21]: 0.457
- interaction score [22]: 1.98
- interaction score [23]: -1.8
- interaction score [24]: -1.69
- interaction score [25]: -1.68
- interaction score [26]: -0.984
- interaction score [27]: -1.48
- interaction score [28]: 1.2
- interaction score [29]: 0.786
- interaction score [30]: -1.52
- interaction score [31]: -1.28
- interaction score [32]: -1.02
- interaction score [33]: 0.134
- interaction score [34]: -2.03
- interaction score [35]: -0.572
- interaction score [36]: -0.199
- interaction score [37]: -0.477
- interaction score [38]: -1.45
- interaction score [39]: -0.0632
- interaction score [40]: -0.675
- interaction score [41]: -1.75
- interaction score [42]: -1.76
- interaction score [43]: 0.785
- interaction score [44]: 1.92
- interaction score [45]: 0.586
- interaction score [46]: -1.8
- interaction score [47]: -1.69
- interaction score [48]: 2.06

Reference: PMC10397247
